The values that follow come from US20080044423A1 (AstraZeneca / MedImmune, published 2008).

Where two headings read alike, the source gives them in different places.

By Kd is commonly meant the free concentration of one partner at which half of the binding sites on the other are occupied at equilibrium, for simple one-to-one binding.

Experiment [1] concerns the target T1, human IL-17A, untagged, E. coli derived (in house or Peprotech) (human, UniProt Q16552 24-155). The experiment can be described thus: cell-based or functional assay.
The target of experiment [2] is native IL-17A derived from primary human T cells (human, UniProt Q16552 24-155, N-linked glycosylation). The experiment can be described thus: cell-based or functional assay.
The target of experiment [3] is T2, murine IL-17A (R & D Systems) (murine, UniProt Q62386 22-158, limits assumed).
T2 sequence (looked up): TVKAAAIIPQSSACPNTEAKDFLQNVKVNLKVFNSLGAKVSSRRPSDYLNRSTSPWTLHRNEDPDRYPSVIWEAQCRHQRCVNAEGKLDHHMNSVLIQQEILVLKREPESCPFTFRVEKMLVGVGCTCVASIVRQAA
The experiment can be described thus: HTRF epitope competition vs HIS FLAG IL-17A binding the IgG. (In general: Time-resolved FRET reads energy transfer from a long-lived donor to a nearby acceptor.)

In experiment [4] the target is T3, human IL-17E (R & D Systems) (human, UniProt Q9H293 33-177).
T3 sequence (looked up): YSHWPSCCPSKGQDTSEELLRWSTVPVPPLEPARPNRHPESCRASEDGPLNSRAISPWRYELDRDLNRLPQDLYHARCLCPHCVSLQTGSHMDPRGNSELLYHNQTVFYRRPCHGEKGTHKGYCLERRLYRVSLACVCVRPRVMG
The experiment is described as above.

The target in another experiment is T4, human IL-17F (Peprotech) (human, UniProt Q96PD4 31-163, limits assumed).
T4 sequence (looked up): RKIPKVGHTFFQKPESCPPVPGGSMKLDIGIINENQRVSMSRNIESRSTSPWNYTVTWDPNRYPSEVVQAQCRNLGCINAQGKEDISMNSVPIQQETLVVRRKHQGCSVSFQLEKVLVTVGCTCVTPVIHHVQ
Described as above.

The target in experiment [5] is T5, human IL-17C (R & D Systems) (human, UniProt Q9P0M4 19-197).
T5 sequence (looked up): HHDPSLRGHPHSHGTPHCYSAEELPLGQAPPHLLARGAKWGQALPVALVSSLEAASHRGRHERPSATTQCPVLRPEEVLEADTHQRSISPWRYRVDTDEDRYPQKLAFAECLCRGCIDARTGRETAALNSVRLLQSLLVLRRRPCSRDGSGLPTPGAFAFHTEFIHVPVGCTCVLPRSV
The description is as above.

Another experiment deals with T6, human IL-17D (Peprotech) (human, UniProt Q8TAD2 18-202, limits assumed).
T6 sequence (looked up): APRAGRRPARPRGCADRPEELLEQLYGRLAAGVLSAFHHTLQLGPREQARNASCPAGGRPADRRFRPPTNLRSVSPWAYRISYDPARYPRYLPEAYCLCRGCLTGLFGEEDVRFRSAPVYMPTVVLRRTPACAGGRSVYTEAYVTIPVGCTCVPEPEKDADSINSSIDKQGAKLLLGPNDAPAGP
The description is as above.

The target in a further experiment is T7, human IL-17B (Peprotech) (human, UniProt Q9UHF5 21-180, limits assumed).
T7 sequence (looked up): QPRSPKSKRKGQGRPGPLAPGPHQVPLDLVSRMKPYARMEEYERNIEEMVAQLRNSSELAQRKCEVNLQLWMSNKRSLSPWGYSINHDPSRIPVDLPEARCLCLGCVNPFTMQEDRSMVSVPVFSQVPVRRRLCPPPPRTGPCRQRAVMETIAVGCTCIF
The experiment is described as above.

The target of experiment [6] is T1, human IL-17A, untagged, E. coli derived …. The experiment can be described thus: cell-based or functional assay. This is another data set of the same source.
The target in experiment [7] is T8, human IL-17A derived from the HEK-EBNA expression system (human, UniProt Q16552 24-155).
T8 construct: used in HT1080 assays; also called HEK EBNA expressed human IL-17A; IL-17A In-house (HEK EBNA)
The experiment is described as follows: estimated from pA2 (Schild) analysis in the HT1080 IL-6 release assay.

Experiment [8] concerns the target T8, human IL-17A derived from the HEK-EBNA …. The experiment is described as follows: cell-based or functional assay.
The target in experiment [9] is T1, human IL-17A, untagged, E. coli derived …. The experiment is described as follows: cell-based or functional assay. This is another data set of the same source.
In a further experiment the target is T9, cynomolgus IL-17A (cynomolgus, UniProt Q16552 24-155 (human entry), limits assumed).
T9 chain: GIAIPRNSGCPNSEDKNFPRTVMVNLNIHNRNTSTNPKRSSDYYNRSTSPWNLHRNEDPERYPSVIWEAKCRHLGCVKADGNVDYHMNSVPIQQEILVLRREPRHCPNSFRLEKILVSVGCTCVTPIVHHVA
The experiment can be described thus: cell-based or functional assay.

In experiment [10] the target is T8, human IL-17A derived from the HEK-EBNA …. The experiment is described as follows: cell-based or functional assay. This is another data set of the same source.
In experiment [11] the target is T1, human IL-17A, untagged, E. coli derived …. The experiment is described as follows: cell-based or functional assay. The source holds these as a separate data set.

B1: Antibody 2 IgG1 (antibody, V domains shown)
VH: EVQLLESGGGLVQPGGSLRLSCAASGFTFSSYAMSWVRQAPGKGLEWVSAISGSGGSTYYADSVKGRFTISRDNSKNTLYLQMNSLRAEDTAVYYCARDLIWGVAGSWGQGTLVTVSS
VL: NFMLTQPHSVSESPGKTVTISCTRSSGSLANYYVQWYQQRPGSSPTIVIFANNQRPSGVPDRFSGSIDSSSNSASLTISGLKTEDEADYYCQSYDPHSVVFGGGTKLTVL
notes: human IgG1, lambda; constant regions not in the listing; also called Antibody 02
As to B1, the “cartilage explant synergised IL-6 response, Mean IC50” value in experiment [1] was determined as 3.39 nM. The “T cell supernatant induced IL-6 production in HT1080 cells, IC50” value in experiment [2] turned out to be 0.25 nM. In addition, the binding result (in experiment [3]; in experiment [4]; with human IL-17F (Peprotech); in [5]; with human IL-17D (Peprotech); with human IL-17B (Peprotech)) was “no binding” in each case. Moreover, the “chondrocyte IL-6 release, geometric mean IC50 at 0.2 nM IL-17A” value in experiment [6] stood at 1.52 nM. The “chondrocyte IL-6 release, geometric mean IC50 at 2 nM IL-17A” value in experiment [6] worked out at 5.51 nM. Further, in experiment [7], the Kd was 0.188 nM. Moreover, in experiment [8], the “HT1080 synergised IL-6 release (125 pM human IL-17 + 25 pM human TNFα), IgG IC50” value worked out at 0.41 nM. In addition, the results for the “chondrocyte IL-8 release, geometric mean IC50 at 0.2 nM IL-17A” value in [9] and in [11] were 1.49 nM and 2.3 nM, respectively. Further, the “chondrocyte IL-8 release, geometric mean IC50 at 2 nM IL-17A” value is 7.18 nM in experiment [9] and 7.91 nM in experiment [11]. Moreover, in the experiment with cynomolgus IL-17A, the “Fold difference in cross-reactivity (IgG)” value came to 12 fold. In addition, the results for the “HT1080 IL-6 release, IgG IC50” value (with cynomolgus IL-17A; in experiment [10]) were 18.3 nM and 1.5 nM, respectively.
